Source: US20080318868A1

Key:
[1] = target: CS40 anti-ManLAM monoclonal antibody; assay: competitive ELISA, ManLAM-coated plate, CS40 (1:2000) mixed with peptide; at 50 µg/ml peptide
[2] = target: CS40 anti-ManLAM monoclonal antibody; assay: competitive ELISA, ManLAM-coated plate, CS40 (1:2000) mixed with peptide

With ISLTEWSMWYRH [B11 synthetic peptide] the decrease in OD (inhibition of CS40 binding to ManLAM) [1] was 100% and the peptide concentration giving 100% decrease in OD [2] was 50 µg/mL.
